Patent US20060263342A1 (YEDA RESEARCH AND DEVELOPMENT, published 2006)

Columns and labels:
[1] = molecular target: murine B7.1 on HCT/HHD/B7.1 cells (murine) (UniProt Q00609); assay: flow cytometry on HCT/HHD/B7.1 cells
HLA-A2.1 on T2 cells [2] = molecular target: T1, HLA-A2.1 on T2 cells (human); assay: T2 stabilization assay, FACS
T1 construct: MHC class I molecule without the tested peptide

HLA-A2.1 on T2 cells [3] = molecular target: T1, HLA-A2.1 on T2 cells; assay: T2 stabilization assay, acid stripped T2 cells with peptide and recombinant β2m, BB7.2 staining, FACS

Sequence of murine B7.1 on HCT/HHD/B7.1 cells (murine) (Q00609 38-306): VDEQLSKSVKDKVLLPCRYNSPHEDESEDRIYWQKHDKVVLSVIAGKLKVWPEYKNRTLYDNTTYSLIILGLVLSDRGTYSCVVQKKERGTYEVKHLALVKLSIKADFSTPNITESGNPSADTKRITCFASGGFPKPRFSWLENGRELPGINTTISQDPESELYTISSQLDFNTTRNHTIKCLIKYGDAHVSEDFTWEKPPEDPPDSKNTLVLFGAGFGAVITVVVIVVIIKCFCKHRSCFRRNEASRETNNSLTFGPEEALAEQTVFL

CTLA-4-Ig fusion protein (Fc fusion) showed a percent stained cells [1] of 100%.

B1: peptide 3-7 (from human 1-8D and 1-8U interferon inducible genes) (peptide)
peptide: KCLNIWALI
notes: also called 1-8D peptide 3-7
B1: binds (HLA-A2.1 on T2 cells [2]).

B2: peptide 3-5 (from human 1-8D interferon induced transmembrane protein 2) (peptide)
peptide: LILGIFMTI
notes: also called 1-8D peptide 3-5
B2: binds (HLA-A2.1 on T2 cells [3]).
